We go through three molecules from patent US20260265373A1 (INMAGENE PTE, published 2026).

Changes are numbered by the printed parent chain.

For experiment [1], the target named is T1, human ILT7-his protein (human, UniProt P59901 28-446).
T1 construct: also called human ILT7 protein
Nature of the experiment: SPR (Biacore 8K), antibody captured through Fc, human ILT7-his as analyte, 25 C. From the text: (§1) Methods: The binding affinity of the humanized cmAb12 antibody, hu-cmAb12, was further measured by surface plasmon resonance (SPR) technology with Biacore 8K. As used herein, “hu-cmAb12” refers to a specific antibody clone variant of the Hu12-04 antibody of Examples 8 and 9. The hu-cmAb12 antibody includes a VL having the amino acid sequence of SEQ ID NO: 19, a VH having the amino acid sequence of SEQ ID NO: 26, and a CH having the amino acid sequence of SEQ ID NO: 55. hu-cmAb12 or Tab1 were immobilized on CM-5 chip. The assay was performed at 25° C. and the running buffer was 1×HEPES (10 mM HEPES, 150 mM NaCl, 3 mM EDTA) with 0.005% Tween-20, pH 7.4. Diluted antibodies were captured on the sensor chip through Fc capture method. Human ILT7-his was used as the analyte, and running buffer was used as the dissociation phase. Similarly, ELISA was conducted as described above. An isotype control antibody and reference anti-ILT7 antibody Tab1 were used as controls.
(Surface plasmon resonance follows binding to a sensor surface in real time, without labels.)

Experiment [2] concerns the target T1, human ILT7-his protein. In words: ELISA, plate coated with human ILT7-his, antibody titrated, OD450. In general terms: An ELISA detects its analyte on a solid surface through an enzyme-linked reagent.
Experiment [3] deals with T2, full-length cynomolgus ILT7 on cells (cynomolgus, UniProt P59901 24-499 (human entry)).
T2 construct: also called CHOK1-cynomolgus ILT7 cells
T2 sequence (P59901 other isoform, or with tags, fused parts or gaps limits assumed): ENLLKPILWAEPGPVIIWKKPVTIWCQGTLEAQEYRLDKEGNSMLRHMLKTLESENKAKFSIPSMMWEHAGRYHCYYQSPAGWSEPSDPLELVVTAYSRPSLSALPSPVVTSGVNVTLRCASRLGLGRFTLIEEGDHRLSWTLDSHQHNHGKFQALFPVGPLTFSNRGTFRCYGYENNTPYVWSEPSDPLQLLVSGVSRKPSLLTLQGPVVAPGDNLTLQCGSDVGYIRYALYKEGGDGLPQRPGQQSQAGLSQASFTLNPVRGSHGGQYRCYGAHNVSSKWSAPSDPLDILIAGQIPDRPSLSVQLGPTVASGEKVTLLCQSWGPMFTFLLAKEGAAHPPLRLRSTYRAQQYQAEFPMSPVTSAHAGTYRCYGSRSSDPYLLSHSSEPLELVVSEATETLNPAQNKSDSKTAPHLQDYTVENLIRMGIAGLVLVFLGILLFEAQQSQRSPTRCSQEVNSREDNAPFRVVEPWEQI
In words: flow cytometry on CHOK1-cynomolgus ILT7 cells, MFI. A general note: A flow cytometer gives signals particle by particle.

Experiment [4] concerns the target T3, full-length human ILT7 on cells (human, UniProt P59901 24-499).
T3 construct: also called CHOK1 cells expressing human ILT7
Nature of the experiment: flow cytometry on 293F-human ILT7 cells, MFI.

The target of experiment [5] is T1, human ILT7-his protein. Nature of the experiment: ELISA, OD450; the x axis is labelled 'human ILT7 Conc (µg/ml)'.
Experiment [6] concerns the target T2, full-length cynomolgus ILT7 on cells. Nature of the experiment: flow cytometry on CHOK1-cynomolgus ILT7 cells, MFI. This is another data set of the same source.
Experiment [7] deals with T3, full-length human ILT7 on cells. Nature of the experiment: flow cytometry on 293F-human ILT7 cells, MFI. This is another data set of the same source.
Experiment [8] shares this target. In words: cell-based or functional assay.
The target is the same in experiment [9]. In words: flow cytometry on 293F-human ILT7 cells. The method, then:
(§2) Methods: The binding affinities of chimeric anti-ILT7 antibodies identified from the screening, including cmAb12, to human ILT7 or cynomolgus ILT7 expressed on cell membrane were measured by flow cytometry. Vectors containing coding sequences for full-length cynomolgus ILT7 (SEQ ID NO: 6) and hFcεRiγ (SEQ ID NO: 7) were generated. […] Both cell lines were seeded, resuspended, and incubated with the chimeric antibodies at 4° C. for 1 hour. Cells were then washed with cold FACS buffer (PBS+2% FBS), resuspended, and incubated with secondary antibody at 4° C. for 1 hour. hIgG1 and Tab1 were used as controls.
(§3) Cells were washed with cold FACS buffer (PBS+2% FBS) by centrifuging, followed by addition of secondary antibodies, and incubation at 4° C. for 1 hour. An isotype control antibody and reference anti-ILT7 antibody Tab1 were used as negative and positive controls. The concentration-MFI curves of FACs were then determined.

In experiment [10] the target is T1, human ILT7-his protein. In words: SPR, Biacore 8K, antibody captured on the chip, human ILT7-his as analyte, 25° C.
From the text: as §1

The target in experiment [11] is T2, full-length cynomolgus ILT7 on cells. In words: flow cytometry on CHOK1-cynomolgus ILT7 cells. As for the experimental part: as §2, §3
Experiment [12] concerns the target T1, human ILT7-his protein. Nature of the experiment: ELISA, plate coated with human ILT7-his. The method, then:
Methods: The binding of the chimeric anti-ILT7 antibodies identified from the screening, including cmAb12, to human ILT7-his protein was measured by ELISA, along with an isotype antibody hIgG1 as negative control and a reference anti-ILT7 antibody Tab1. 96-well ELISA plates were coated with human ILT7-his in PBS (2 μg/ml) overnight at 4° C. Chimeric antibodies were added to the wells and co-incubated with the coating protein at 37° C. for 1 hour, followed by the addition of secondary HRP labelled antibody. After incubation at 37° C. for 1 more hour, TMB substrate was added to wells and incubated at RT for 15 min. 1 N HCl was added to terminate the reactions. The absorbance at 450 nm was measured with a microplate reader.
Methods: The binding affinity of the humanized cmAb12 antibody, hu-cmAb12, was further measured by surface plasmon resonance (SPR) technology with Biacore 8K. As used herein, “hu-cmAb12” refers to a specific antibody clone variant of the Hu12-04 antibody of Examples 8 and 9. The hu-cmAb12 antibody includes a VL having the amino acid sequence of SEQ ID NO: 19, a VH having the amino acid sequence of SEQ ID NO: 26, and a CH having the amino acid sequence of SEQ ID NO: 55. hu-cmAb12 or Tab1 were immobilized on CM-5 chip. The assay was performed at 25° C. and the running buffer was 1×HEPES (10 mM HEPES, 150 mM NaCl, 3 mM EDTA) with 0.005% Tween-20, pH 7.4. […]

In experiment [13] the target is T4, LILRA5/ILT11 (UniProt A6NI73 42-268, limits assumed). In words: ELISA, plate coated with 1 µg/ml LILR superfamily protein. The method, then: (§4) Methods: The binding specificities of the chimeric antibodies, including cmAb12, for ILT7 over its related 10 LILR superfamily member proteins were evaluated by ELISA. Plates coated with 1 μg/ml LILR superfamily protein as indicated were incubated with chimeric antibodies at 37° C. for 1 hour, followed by the secondary antibody.
T4 sequence (A6NI73 42-268 limits assumed): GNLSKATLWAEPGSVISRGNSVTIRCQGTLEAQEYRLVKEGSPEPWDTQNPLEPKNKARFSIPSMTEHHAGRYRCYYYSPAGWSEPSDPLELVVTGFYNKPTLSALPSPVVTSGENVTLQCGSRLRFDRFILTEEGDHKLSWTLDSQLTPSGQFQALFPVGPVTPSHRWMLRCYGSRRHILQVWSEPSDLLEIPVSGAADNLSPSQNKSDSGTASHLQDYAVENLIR

The target in experiment [14] is T5, LILRA6/ILT8 (UniProt Q6PI73 24-447, limits assumed). Described as above. As for the experimental part: as §4
Experiment [15] addresses T6, LILRB3/ILT5 (UniProt O75022 24-443, limits assumed). The experiment is described as above. The method, then: as §4
Experiment [16] has as its target T7, LILRA1 (UniProt O75019 17-461, limits assumed). The experiment is described as above. As for the experimental part:
as §4

The target in experiment [17] is T8, LILRA2/ILT1 (UniProt Q8N149 24-449, limits assumed). The description is as above. As for the experimental part: as §4
T8 sequence (Q8N149 24-449 limits assumed): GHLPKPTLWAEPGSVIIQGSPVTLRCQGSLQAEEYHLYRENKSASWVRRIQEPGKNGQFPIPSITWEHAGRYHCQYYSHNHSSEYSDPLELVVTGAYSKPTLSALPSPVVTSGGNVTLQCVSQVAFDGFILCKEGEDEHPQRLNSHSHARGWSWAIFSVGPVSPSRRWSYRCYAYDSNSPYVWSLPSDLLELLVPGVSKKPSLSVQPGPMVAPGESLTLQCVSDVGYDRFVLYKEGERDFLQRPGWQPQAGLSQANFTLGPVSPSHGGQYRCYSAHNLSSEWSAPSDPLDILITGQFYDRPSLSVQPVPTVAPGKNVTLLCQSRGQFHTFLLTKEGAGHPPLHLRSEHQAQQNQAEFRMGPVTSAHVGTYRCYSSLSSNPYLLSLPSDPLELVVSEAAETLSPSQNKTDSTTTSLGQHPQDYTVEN
Experiment [18] has as its target T9, LILRB4/ILT3 (UniProt Q8NHJ6 22-259). The description is as above. The method, then: as §4
Experiment [19] concerns the target T10, LILB5 (UniProt O75023 24-458, limits assumed).
T10 construct: also called LILRB5 (printed as LILB5)
The description is as above. As for the experimental part: as §4

Experiment [20] concerns the target T11, LILRB2/ILT4 (UniProt Q8N423 22-460, limits assumed). The description is as above. The method, then:
as §4

Experiment [21] deals with T12, LILRA3/ILT6 (UniProt Q8N6C8 24-439). The description is as above. As for the experimental part:
as §4

Experiment [22] addresses T13, LILRB1/ILT2 (UniProt Q8NHL6 24-461, limits assumed). Described as above. As for the experimental part:
as §4

Experiment [23] has as its target T4, LILRA5/ILT11. In words: ELISA, plate coated with 1 µg/ml LILR protein. The method, then: as §4
Experiment [24] concerns the target T5, LILRA6/ILT8. Nature of the experiment: ELISA, plate coated with 1 µg/ml LILR protein. The method, then:
as §4

Experiment [25] has as its target T6, LILRB3/ILT5. In words: ELISA, plate coated with 1 µg/ml LILR protein. The method, then: as §4
For experiment [26], the target named is T7, LILRA1. Nature of the experiment: ELISA, plate coated with 1 µg/ml LILR protein. The method, then:
as §4

Experiment [27] deals with T8, LILRA2/ILT1. Nature of the experiment: ELISA, plate coated with 1 µg/ml LILR protein. The method, then:
as §4

The target in experiment [28] is T9, LILRB4/ILT3. In words: ELISA, plate coated with 1 µg/ml LILR protein. As for the experimental part: as §4
In experiment [29] the target is T10, LILB5. In words: ELISA, plate coated with 1 µg/ml LILR protein. The method, then:
as §4

The target of experiment [30] is T11, LILRB2/ILT4. In words: ELISA, plate coated with 1 µg/ml LILR protein. The method, then:
as §4

Experiment [31] has as its target T12, LILRA3/ILT6. Nature of the experiment: ELISA, plate coated with 1 µg/ml LILR protein. As for the experimental part: as §4
Experiment [32] concerns the target T13, LILRB1/ILT2. Nature of the experiment: ELISA, plate coated with 1 µg/ml LILR protein. The method, then:
as §4

T1 sequence (P59901 other isoform, or with tags, fused parts or gaps): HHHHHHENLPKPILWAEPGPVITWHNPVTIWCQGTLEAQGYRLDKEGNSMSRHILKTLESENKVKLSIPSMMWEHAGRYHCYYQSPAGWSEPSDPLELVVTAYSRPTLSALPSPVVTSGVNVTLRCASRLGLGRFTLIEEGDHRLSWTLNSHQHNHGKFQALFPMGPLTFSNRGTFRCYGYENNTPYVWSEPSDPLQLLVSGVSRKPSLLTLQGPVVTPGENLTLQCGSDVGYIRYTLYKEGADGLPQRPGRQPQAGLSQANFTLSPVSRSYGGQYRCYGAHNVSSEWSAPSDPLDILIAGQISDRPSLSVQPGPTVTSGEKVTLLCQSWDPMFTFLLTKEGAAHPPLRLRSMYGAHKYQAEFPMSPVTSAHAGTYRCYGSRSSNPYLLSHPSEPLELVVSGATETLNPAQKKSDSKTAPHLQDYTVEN
T3 sequence (P59901 other isoform, or with tags, fused parts or gaps): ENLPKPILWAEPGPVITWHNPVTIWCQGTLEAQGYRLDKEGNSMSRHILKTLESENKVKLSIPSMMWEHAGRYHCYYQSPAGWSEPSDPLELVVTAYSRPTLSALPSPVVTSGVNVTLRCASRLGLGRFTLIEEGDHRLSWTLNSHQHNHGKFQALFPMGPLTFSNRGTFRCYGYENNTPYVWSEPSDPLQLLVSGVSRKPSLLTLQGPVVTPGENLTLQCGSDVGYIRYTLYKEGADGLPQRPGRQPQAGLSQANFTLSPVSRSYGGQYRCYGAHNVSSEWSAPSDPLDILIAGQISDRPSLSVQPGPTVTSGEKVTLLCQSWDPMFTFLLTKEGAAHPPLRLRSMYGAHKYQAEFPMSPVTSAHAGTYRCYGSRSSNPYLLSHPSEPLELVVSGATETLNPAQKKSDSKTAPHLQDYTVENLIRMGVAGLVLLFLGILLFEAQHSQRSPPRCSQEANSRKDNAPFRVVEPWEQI
T10 sequence (O75023 24-458 limits assumed): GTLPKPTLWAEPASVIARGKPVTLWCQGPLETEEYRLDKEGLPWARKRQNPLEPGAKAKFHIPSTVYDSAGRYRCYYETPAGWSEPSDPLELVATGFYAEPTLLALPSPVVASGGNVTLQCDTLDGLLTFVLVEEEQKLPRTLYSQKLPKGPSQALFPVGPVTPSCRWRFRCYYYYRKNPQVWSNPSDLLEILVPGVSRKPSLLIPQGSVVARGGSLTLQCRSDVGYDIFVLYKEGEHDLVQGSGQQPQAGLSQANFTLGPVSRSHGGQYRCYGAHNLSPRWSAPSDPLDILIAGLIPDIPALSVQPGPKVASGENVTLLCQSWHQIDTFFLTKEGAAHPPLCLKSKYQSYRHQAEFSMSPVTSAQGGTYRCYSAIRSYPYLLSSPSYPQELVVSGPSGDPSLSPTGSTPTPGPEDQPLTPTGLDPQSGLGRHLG
T12 sequence (Q8N6C8 24-439 limits assumed): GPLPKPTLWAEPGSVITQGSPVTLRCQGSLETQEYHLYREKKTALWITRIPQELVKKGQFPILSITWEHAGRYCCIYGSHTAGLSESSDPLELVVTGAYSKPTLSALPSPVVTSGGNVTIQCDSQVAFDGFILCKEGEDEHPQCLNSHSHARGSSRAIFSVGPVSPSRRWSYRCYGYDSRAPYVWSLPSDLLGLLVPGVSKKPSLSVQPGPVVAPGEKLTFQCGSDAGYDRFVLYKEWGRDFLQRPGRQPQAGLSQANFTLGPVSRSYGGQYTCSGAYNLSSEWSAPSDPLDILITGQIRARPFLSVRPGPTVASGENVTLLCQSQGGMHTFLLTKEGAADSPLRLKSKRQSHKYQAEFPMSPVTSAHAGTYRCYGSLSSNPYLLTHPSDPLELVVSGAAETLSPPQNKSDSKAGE
T7 sequence (O75019 17-461 limits assumed): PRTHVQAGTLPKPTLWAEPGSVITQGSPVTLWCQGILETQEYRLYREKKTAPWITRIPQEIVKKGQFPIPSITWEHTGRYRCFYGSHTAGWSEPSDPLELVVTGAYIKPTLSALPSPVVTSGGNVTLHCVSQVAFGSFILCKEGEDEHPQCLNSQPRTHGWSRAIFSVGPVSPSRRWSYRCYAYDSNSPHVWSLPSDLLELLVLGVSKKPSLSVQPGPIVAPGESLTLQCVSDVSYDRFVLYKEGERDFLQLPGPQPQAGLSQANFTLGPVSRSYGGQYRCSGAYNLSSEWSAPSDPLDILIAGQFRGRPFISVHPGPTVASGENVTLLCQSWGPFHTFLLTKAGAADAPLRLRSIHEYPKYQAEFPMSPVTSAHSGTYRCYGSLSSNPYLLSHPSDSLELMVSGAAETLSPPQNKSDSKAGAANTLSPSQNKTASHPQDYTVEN
T6 sequence (O75022 24-443 limits assumed): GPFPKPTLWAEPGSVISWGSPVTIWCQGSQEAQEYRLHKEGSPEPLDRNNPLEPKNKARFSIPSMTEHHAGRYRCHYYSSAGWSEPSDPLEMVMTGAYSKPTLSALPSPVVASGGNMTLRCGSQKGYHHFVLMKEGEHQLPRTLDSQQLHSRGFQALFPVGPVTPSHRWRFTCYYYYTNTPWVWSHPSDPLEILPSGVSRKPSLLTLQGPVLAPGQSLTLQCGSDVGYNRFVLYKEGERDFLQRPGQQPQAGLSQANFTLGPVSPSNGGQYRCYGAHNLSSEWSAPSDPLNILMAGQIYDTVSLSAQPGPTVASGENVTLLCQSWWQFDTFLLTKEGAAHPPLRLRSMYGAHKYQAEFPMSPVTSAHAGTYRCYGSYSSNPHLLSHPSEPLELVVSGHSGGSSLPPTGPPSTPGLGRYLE
T13 sequence (Q8NHL6 24-461 limits assumed): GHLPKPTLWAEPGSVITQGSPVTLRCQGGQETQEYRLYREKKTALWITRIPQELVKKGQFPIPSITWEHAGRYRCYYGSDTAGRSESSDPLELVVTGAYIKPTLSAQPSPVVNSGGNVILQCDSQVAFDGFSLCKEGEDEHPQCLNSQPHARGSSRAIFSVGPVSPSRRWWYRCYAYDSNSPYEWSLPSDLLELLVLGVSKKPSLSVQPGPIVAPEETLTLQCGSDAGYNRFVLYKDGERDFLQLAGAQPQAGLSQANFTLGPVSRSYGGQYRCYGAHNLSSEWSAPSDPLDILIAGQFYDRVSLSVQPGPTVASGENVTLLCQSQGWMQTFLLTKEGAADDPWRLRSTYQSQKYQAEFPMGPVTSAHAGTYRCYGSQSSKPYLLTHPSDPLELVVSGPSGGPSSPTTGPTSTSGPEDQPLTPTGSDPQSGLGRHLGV
T11 sequence (Q8N423 22-460 limits assumed): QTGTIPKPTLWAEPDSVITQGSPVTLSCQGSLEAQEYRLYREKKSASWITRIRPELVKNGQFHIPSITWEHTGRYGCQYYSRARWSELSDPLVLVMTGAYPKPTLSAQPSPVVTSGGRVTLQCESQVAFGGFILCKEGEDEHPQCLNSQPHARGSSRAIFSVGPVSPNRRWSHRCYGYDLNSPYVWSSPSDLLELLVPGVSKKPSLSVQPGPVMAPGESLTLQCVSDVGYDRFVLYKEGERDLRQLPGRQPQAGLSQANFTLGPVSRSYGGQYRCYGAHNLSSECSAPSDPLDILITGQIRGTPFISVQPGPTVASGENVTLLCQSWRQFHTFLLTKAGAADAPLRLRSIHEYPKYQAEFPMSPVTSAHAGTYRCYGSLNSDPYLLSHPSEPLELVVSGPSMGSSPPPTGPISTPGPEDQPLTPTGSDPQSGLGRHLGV

B1: benchmark antibody daxdilimab (Tab1) (antibody, V domains shown)
VH: QVQLQQSGAEVKKPGASVKVSCKASGYTFTSYGISWVRQAPGQGLEWMGWISAYNGNTNYAQKLQGRVTMTIDTSTSTAYMELRSLRSDDTAVYYCARNGLWGWDSDAFDIWGRGTLVTVSS
VL: QSALTQPASVSGSPGQSITISCTGTSSDVGGYNYVSWYQQHPGKAPKLMIYDVSNRPSGVSNRFSGSKSGNTASLTISGLQAEDEADYYCSSYTSSSTVVFGGGTKVTVL
By Kd is commonly meant the concentration at which binding is half-saturated. Lower therefore signals higher affinity. One may read the koff as a measure of how fast the partners let go of each other. Low values mean slow dissociation, high ones fast dissociation. As usually defined, the kon is the rate constant with which the complex forms. A lower kon goes with slow association. As a reminder, the EC50 is the concentration that produces a half-maximal response. In the experiment with human ILT7-his protein [1], B1 gave a dissociation constant Kd of 71300 pM. In the experiment with human ILT7-his protein [1], the off-rate constant (koff) stood at 0.0278 s⁻¹. In the experiment with human ILT7-his protein [1], this molecule gave a kon of 390000 M⁻¹ s⁻¹. The EC50 was found to be 68.2 pM in the experiment with human ILT7-his protein [2]; 1100 pM in [3]; 579 pM in experiment [4]; 0.0398 µg/mL with human ILT7-his protein [5]; 2460 pM in experiment [6]; 383 pM in [7]. Also, in experiment [8], the “NK-dependent ADCC activity (% Cytotoxicity), EC50” value was 10.3 pM.

B2: humanized antibody hu-cmAb12 (antibody, V domains shown)
VH: QVQLVQSGAEVKKPGASVKVSCKASGYTFTEYPMHWVRQAPGQRLEWMGMIYTDTGEPAYAEEFKGRVTITRDTSASTAYMELSSLRSEDTAVYYCARELGQNFDYWGQGTTVTVSS
VL: DIVLTQSPASLAVSPGQRATITCRASQSVSTSSYSYMHWYQQKPGQPPKLLIYYASNLESGVPARFSGSGSGTDFTLTINPVEAEDTANYYCQHSWDIPYTFGQGTKLEIK
modifications: Example 12: the antibody was conjugated with the dye Alexa488, which the letters do not carry.
notes: also called antibody clone variant of Hu12-04
B2: the concentration giving a half-maximal response (EC50) in experiment [9] turned out to be 343 pM. In the experiment with human ILT7-his protein [1], the off-rate (koff) worked out at 0.106 s⁻¹ and the kon came out at 959000 M⁻¹ s⁻¹. The same molecule displayed a Kd with human ILT7-his protein [10] of 111000 pM. This molecule gave an EC50 in [11] of 1650 pM. For the same molecule, the EC50 with human ILT7-his protein [12] was 0.0791 µg/mL. In experiment [8], the “NK-dependent ADCC activity (% Cytotoxicity), EC50” value came to 3.8 pM; the “macrophage-dependent ADCP activity, EC50 (Donor 1)” value came out at 881 pM; the “macrophage-dependent ADCP activity, EC50 (Donor 2)” value came out at 2170 pM; the “macrophage-dependent ADCP activity, EC50 (Donor 3)” value is 1580 pM. The “neutrophil-dependent ADCC activity (% Cytotoxicity), EC50” value in experiment [8] turned out to be 16100 pM.

B3: chimeric antibody Ab12 (cmAb12) (antibody, human IgG1, V domains shown)
VH: QIQLVQSGPELKKPGETVKISCKASGYTFTEYPMHWVKQAPGKGFKWMGMIYTDTGEPAYAEEFKGRFAFSLETSASTAYLQINNLKNEDTATYFCVRELGQNFDYWGQGTTLTVSS
VL: B2 VL with P15L, T22S, Y53K, T78N, N80H, A84E, N89T, Q104G
notes: also called chimeric Ab12
B3: the concentration giving a half-maximal response (EC50) in experiment [9] was 312 pM; in experiment [11], 938 pM; with human ILT7-his protein [12], 75.1 pM. Moreover, the binding result in the experiment with LILRA5/ILT11 [13], in the experiment with LILRA6/ILT8 [14], with LILRB3/ILT5 [15], with LILRA1 [16], with LILRA2/ILT1 [17] and with LILRB4/ILT3 [18] was “no binding” throughout. Moreover, the binding result with LILB5 [19], with LILRB2/ILT4 [20], with LILRA3/ILT6 [21] and with LILRB1/ILT2 [22] was “no binding” each time. The “ELISA OD 450 nM” value with LILRA5/ILT11 [23] was found to be 0.1 OD450; in the experiment with LILRA6/ILT8 [24], 0.1 OD450; with LILRB3/ILT5 [25] it was 0.1 OD450; in the experiment with LILRA1 [26] it was 0.1 OD450; with LILRA2/ILT1 [27] it was 0.2 OD450; in the experiment with LILRB4/ILT3 [28] it was 0.1 OD450. Further, the “ELISA OD 450 nM” value in the experiment with LILB5 [29] came to 0.1 OD450; with LILRB2/ILT4 [30] it was 0.3 OD450; with LILRA3/ILT6 [31] it was 0.1 OD450; in the experiment with LILRB1/ILT2 [32], 0.1 OD450.
